Test results: article PMC6599211, “Structural basis of TFIIH activation for nucleotide excision repair” (Nature Communications, 2019)

B1: XPG (natural protein, human, UniProt P28715 1-1186, looked up)
chain: MGVQGLWKLLECSGRQVSPEALEGKILAVDISIWLNQALKGVRDRHGNSIENPHLLTLFHRLCKLLFFRIRPIFVFDGDAPLLKKQTLVKRRQRKDLASSDSRKTTEKLLKTFLKRQAIKTAFRSKRDEALPSLTQVRRENDLYVLPPLQEEEKHSSEEEDEKEWQERMNQKQALQEEFFHNPQAIDIESEDFSSLPPEVKHEILTDMKEFTKRRRTLFEAMPEESDDFSQYQLKGLLKKNYLNQHIEHVQKEMNQQHSGHIRRQYEDEGGFLKEVESRRVVSEDTSHYILIKGIQAKTVAEVDSESLPSSSKMHGMSFDVKSSPCEKLKTEKEPDATPPSPRTLLAMQAALLGSSSEEELESENRRQARGRNAPAAVDEGSISPRTLSAIKRALDDDEDVKVCAGDDVQTGGPGAEEMRINSSTENSDEGLKVRDGKGIPFTATLASSSVNSAEEHVASTNEGREPTDSVPKEQMSLVHVGTEAFPISDESMIKDRKDRLPLESAVVRHSDAPGLPNGRELTPASPTCTNSVSKNETHAEVLEQQNELCPYESKFDSSLLSSDDETKCKPNSASEVIGPVSLQETSSIVSVPSEAVDNVENVVSFNAKEHENFLETIQEQQTTESAGQDLISIPKAVEPMEIDSEESESDGSFIEVQSVISDEELQAEFPETSKPPSEQGEEELVGTREGEAPAESESLLRDNSERDDVDGEPQEAEKDAEDSLHEWQDINLEELETLESNLLAQQNSLKAQKQQQERIAATVTGQMFLESQELLRLFGIPYIQAPMEAEAQCAILDLTDQTSGTITDDSDIWLFGARHVYRNFFNKNKFVEYYQYVDFHNQLGLDRNKLINLAYLLGSDYTEGIPTVGCVTAMEILNEFPGHGLEPLLKFSEWWHEAQKNPKIRPNPHDTKVKKKLRTLQLTPGFPNPAVAEAYLKPVVDDSKGSFLWGKPDLDKIREFCQRYFGWNRTKTDESLFPVLKQLDAQQTQLRIDSFFRLAQQEKEDAKRIKSQRLNRAVTCMLRKEKEAAASEIEAVSVAMEKEFELLDKAKGKTQKRGITNTLEESSSLKRKRLSDSKGKNTCGGFLGETCLSESSDGSSSEDAESSSLMNVQRRTAAKEPKTSASDSQNSVKEAPVKNGGATTSSSSDSDDDGGKEKMVLVTARSVFGKKRRKLRRARGRKRKT
B2: cryo-EM DNA scaffold (forked) (mixed)
DNA 1: CAAAGTCACGACCTAGACACTGCGAGCTCGAATTCACTGGAGTGACCTC
DNA 2: GAGGTCACTCCAGTGAATTCGAGCTCGCAACAATGAGCACATACCTAGT

What was measured:
[1] = biological target: human TFIIH core module (core TFIIH), seven subunits: XPB, XPD, p62, p52, p44, p34, TTDA (human, UniProt P19447 1-782; P18074 1-760; P32780 1-548; Q92759 1-462; Q13888 1-395; Q13889 …); experiment: cell-based or functional assay
[2] = biological target: XPB (core TFIIH);XPD (core TFIIH);p62 (core TFIIH);p52 (core TFIIH);p44 (core TFIIH);p34 (core TFIIH);TTDA/p8 … (Homo sapiens;Homo sapiens;Homo …, UniProt P19447;P18074;P32780;Q92759;Q13888;Q13889;Q6ZYL4;P23025 …, |||||||); experiment: cryo-EM structure (3.6 A); 2 mM Mg2+ at assembly; XPG E791A added (3:1 excess over TFIIH) but not visible in the map; glutaraldehyde-fixed gradient; DNA register shift not excluded; Complex assembly: 150 mM KCl, 20 mM KOH:HEPES pH 7.0, 10% glycerol, 2 mM MgCl2, 5 mM beta-mercaptoethanol; sucrose gradient pH 7.5, 4 C, 0.1% glutaraldehyde; helicase/triplex assays (turnover) left out; details: copies: 1;1;1;1;1;1;1;1; fork, 29 bp duplex 1:21-49 with 2:1-29; unpaired arms 20 nt 5' (strand 1: 1-20) and 20 nt 3' (strand 2: 30-49)

Binder	XPD 5′–3′ helicase activity of core TFIIH (rate of DNA unwinding, stopped-flow kinetics), with XPG against without [1]	binding result [2]
B1	20 fold	
B2		binds
